Measured values from article PMC9638919, “DAZL regulates proliferation of human primordial germ cells by direct binding to precursor miRNAs and enhances DICER processing activity”.

B1: pre-let-7i (structured_RNA)
RNA: CUGGCUGAGGUAGUAGUUUGUGCUGUUGGUCGGGUUGUGACAUUGCCCGCUGUGGAGAUAACUGCGCAAGCUACUGCCUUGCUA
B2: pre-let-7c (structured_RNA)
RNA: GCAUCCGGGUUGAGGUAGUAGGUUGUAUGGUUUAGAGUUACACCCUGGGAGUUAACUGUACAACCUUCUAGCUUUCCUUGGAGC
B3: pre-miR-185 (structured_RNA)
RNA: AGGGGGCGAGGGAUUGGAGAGAAAGGCAGUUCCUGAUGGUCCCCUCCCCAGGGGCUGGCUUUCCUCUGGUCCUUCCCUCCCA
B4: pre-miR-199a (structured_RNA)
RNA: GCCAACCCAGUGUUCAGACUACCUGUUCAGGAGGCUCUCAAUGUGUACAGUAGUCUGCACAUUGGUUAGGC

Key:
GST-DAZL [1] = target: T1, GST-DAZL (UniProt Q92904 1-295); assay: EMSA; 10 mM HEPES pH 7.4, 50 mM KCl, 1 mM EDTA, 0.05% Triton X-100, 5% glycerol, 0.01 mg/ml BSA, 1 mM DTT; 10 nM FAM-RNA, 40 min; temperature not stated; settings: protein: recombinant; tags: N-terminal GST; label: 5'-FAM
T1 sequence: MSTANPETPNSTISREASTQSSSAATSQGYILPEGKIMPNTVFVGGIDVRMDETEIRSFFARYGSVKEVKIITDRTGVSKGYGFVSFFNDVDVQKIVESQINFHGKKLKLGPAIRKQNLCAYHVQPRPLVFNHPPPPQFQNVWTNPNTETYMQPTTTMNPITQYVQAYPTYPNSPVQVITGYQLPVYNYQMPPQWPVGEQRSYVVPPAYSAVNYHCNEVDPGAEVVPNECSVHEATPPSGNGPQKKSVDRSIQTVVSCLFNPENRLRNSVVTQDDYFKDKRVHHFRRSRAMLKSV

GST-DAZL [2] = target: T1, GST-DAZL; assay: EMSA; 3000 nM DAZL; 10 mM HEPES pH 7.4, 50 mM KCl, 1 mM EDTA, 0.05% Triton X-100, 5% glycerol, 0.01 mg/ml BSA, 1 mM DTT; 10 nM FAM-RNA, 40 min; temperature not stated; settings: protein: recombinant; tags: N-terminal GST; label: 5'-FAM; hairpin
GST-DAZL [3] = target: T1, GST-DAZL; assay: EMSA; 5000 nM DAZL; 10 mM HEPES pH 7.4, 50 mM KCl, 1 mM EDTA, 0.05% Triton X-100, 5% glycerol, 0.01 mg/ml BSA, 1 mM DTT; 10 nM FAM-RNA, 40 min; temperature not stated; settings: protein: recombinant; tags: N-terminal GST; label: 5'-FAM; hairpin
GST-DAZL [4] = target: T1, GST-DAZL; assay: EMSA; only slightly affected vs wild type; 10 mM HEPES pH 7.4, 50 mM KCl, 1 mM EDTA, 0.05% Triton X-100, 5% glycerol, 0.01 mg/ml BSA, 1 mM DTT; 10 nM FAM-RNA, 40 min; temperature not stated; settings: protein: recombinant; tags: N-terminal GST; label: 5'-FAM
[5] = target: T2, GST-RRM (DAZL RRM domain) (UniProt Q92904 40-115); assay: EMSA; 10 mM HEPES pH 7.4, 50 mM KCl, 1 mM EDTA, 0.05% Triton X-100, 5% glycerol, 0.01 mg/ml BSA, 1 mM DTT; 10 nM FAM-RNA, 40 min; temperature not stated; settings: protein: recombinant; tags: N-terminal GST; label: 5'-FAM; hairpin
T2 sequence: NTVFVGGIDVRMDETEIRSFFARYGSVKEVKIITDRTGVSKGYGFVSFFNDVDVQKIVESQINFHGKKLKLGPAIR

Binder	binding signal (GST-DAZL [2]) [% shifted]	binding signal (GST-DAZL [3]) [% shifted]	also measured
UAGAGUUACACCCUGGGAGUUAA (ssRNA) [pre-let-7c loop]			binding result (GST-DAZL [1]): binds
B1	37	50.9	
B2	37.4	41.3	
UAGAGAUACACCCUGGGAGAUAA (ssRNA) [pre-let-7c loop, second U to A in both GUU]			binding result (GST-DAZL [4]): binds
UAGAAUUACACCCUGGGAAUUAA (ssRNA) [pre-let-7c loop, first G to A in both GUU]			binding result (GST-DAZL [4]): binds
B3			binding result [5]: no binding
B4	18.1	22.1	
